Here are results for 6 sequences from the supplement of paper PMC5998384.

Series [1] has as its system HeLa Kyoto. Kind of series: solubility in G1/S (NP-40 vs SDS abundance) (log2 ratio); higher = more soluble. The settings on record: cell cycle stage: G1/S.
The test system of series [2] is HeLa Kyoto. Kind of series: melting temperature (median over replicates), in situ; higher = more thermally stable.
Series [3] deals with HeLa Kyoto. Kind of series: solubility change mitosis vs G1/S (difference of NP-40 vs SDS log2 ratios) (log2 ratio difference); higher = more soluble in mitosis.
In series [4] the test system is HeLa Kyoto. The series is described as follows: thermal stability score vs G1/S (z-score of summed log2 fold changes over temperatures); higher = more thermally stable than in G1/S.
[5] abbreviates: cell cycle stage: early G1 (4.5 h after nocodazole release).
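Wherever melting temperature (median over replicates), in situ is given: HeLa Kyoto cells synchronized by double thymidine or nocodazole block, proteins quantified by TMT10plex mass spectrometry, three independent biological replicates.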
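Wherever solubility change mitosis vs G1/S (difference of NP-40 vs SDS log2 ratios) is given: synchronized HeLa Kyoto cells (double thymidine block for G1/S, nocodazole release for mitosis), protein amounts in NP-40 versus SDS lysates quantified by mass spectrometry, three biological replicates.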
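Wherever solubility in G1/S (NP-40 vs SDS abundance) is given: HeLa Kyoto cells arrested at G1/S by double thymidine block, proteins quantified by TMT10plex mass spectrometry in mild NP-40 versus SDS extracts, three biological replicates.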
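Wherever thermal stability score vs G1/S (z-score of summed log2 fold changes over temperatures) is given: synchronized HeLa Kyoto cells, proteins quantified by TMT10plex mass spectrometry, three biological replicates, mitosis taken 0.5 h after nocodazole release, G1/S directly after double thymidine block.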

For the sequence “MGKKQKNKSEDSTKDDIDLDALAAEIEGAGAAKEQEPQKSKGKKKKEKKKQDFDEDDILKELEELSLEAQGIKADRETVAVKPTENNEEEFTSKDKKKKGQKGKKQSFDDNDSEELEDKDSKSKKTAKPKVEMYSGSDDDDDFNKLPKKAKGKAQKSNKKWDGSEEDEDNSKKIKERSRINSSGESGDESDEFLQSRKGQKKNQKNKPGPNIESGNEDDDASFKIKTVAQKKAEKKERERKKRDEEKAKLRKLKEKEELETGKKDQSKQKESQRKFEEETVKSKVTVDTGVIPASEEKAETPTAAEDDNEGDKKKKDKKKKKGEKEEKEKEKKKGPSKATVKAMQEALAKLKEEEERQKREEEERIKRLEELEAKRKEEERLEQEKRERKKQKEKERKERLKKEGKLLTKSQREARARAEATLKLLQAQGVEVPSKDSLPKKRPIYEDKKRKKIPQQLESKEVSESMELCAAVEVMEQGVPEKEETPPPVEPEEEEDTEDAGLDDWEAMASDEETEKVEGNKVHIEVKENPEEEEEEEEEEEEDEESEEEEEEEGESEGSEGDEEDEKVSDEKDSGKTLDKKPSKEMSSDSEYDSDDDRTKEERAYDKAKRRIEKRRLEHSKNVNTEKLRAPIICVLGHVDTGKTKILDKLRHTHVQDGEAGGITQQIGATNVPLEAINEQTKMIKNFDRENVRIPGMLIIDTPGHESFSNLRNRGSSLCDIAILVVDIMHGLEPQTIESINLLKSKKCPFIVALNKIDRLYDWKKSPDSDVAATLKKQKKNTKDEFEERAKAIIVEFAQQGLNAALFYENKDPRTFVSLVPTSAHTGDGMGSLIYLLVELTQTMLSKRLAHCEELRAQVMEVKALPGMGTTIDVILINGRLKEGDTIIVPGVEGPIVTQIRGLLLPPPMKELRVKNQYEKHKEVEAAQGVKILGKDLEKTLAGLPLLVAYKEDEIPVLKDELIHELKQTLNAIKLEEKGVYVQASTLGSLEALLEFLKTSEVPYAGINIGPVHKKDVMKASVMLEHDPQYAVILAFDVRIERDAQEMADSLGVRIFSAEIIYHLFDAFTKYRQDYKKQKQEEFKHIAVFPCKIKILPQYIFNSRDPIVMGVTVEAGQVKQGTPMCVPSKNFVDIGIVTSIEINHKQVDVAKKGQEVCVKIEPIPGESPKMFGRHFEATDILVSKISRQSIDALKDWFRDEMQKSDWQLIVELKKVFEII [EIF5B]”, in series [1], the “solubility in G1/S (log2)” value was -0.19. The melting temperature came to 51.5 °C in series [2] (cell cycle stage: G1/S) and 51.6 °C in series [2] (cell cycle stage: mitosis). The “solubility change mitosis (log2)” value in series [3] turned out to be 0.0872. Besides, the thermal stability score in series [4] (setting [5]) turned out to be 1.35; in series [4] (cell cycle stage: mitosis), 2.42.
As for “MGKKSRAVPGRRPILQLSPPGPRGSTPGRDPEPEPDTEPDSTAAVPSQPAPSAATTTTTAVTAAAASDDSPSEDEQEAVQEVPRVVQNPPKPVMTTRPTAVKATGGLCLLGAYADSDDDDNDVSEKLAQSKETNGNQSTDIDSTLANFLAEIDAITAPQPAAPVGASAPPPTPPRPEPKEAATSTLSSSTSNGTDSTQTSGWQYDTQCSLAGVGIEMGDWQEVWDENTGCYYYWNTQTNEVTWELPQYLATQVQGLQHYQPSSVPGAETSFVVNTDIYSKEKTISVSSSKSGPVIAKREVKKEVNEGIQALSNSEEEKKGVAASLLAPLLPEGIKEEEERWRRKVICKEEPVSEVKETSTTVEEATTIVKPQEIMLDNIEDPSQEDLCSVVQSGESEEEEEQDTLELELVLERKKAELRALEEGDGSVSGSSPRSDISQPASQDGMRRLMSKRGKWKMFVRATSPESTSRSSSKTGRDTPENGETAIGAENSEKIDENSDKEMEVEESPEKIKVQTTPKVEEEQDLKFQIGELANTLTSKFEFLGINRQSISNFHVLLLQTETRIADWREGALNGNYLKRKLQDAAEQLKQYEINATPKGWSCHWDRDHRRYFYVNEQSGESQWEFPDGEEEEEESQAQENRDETLAKQTLKDKTGTDSNSTESSETSTGSLCKESFSGQVSSSSLMPLTPFWTLLQSNVPVLQPPLPLEMPPPPPPPPESPPPPPPPPPPAEDGEIQEVEMEDEGSEEPPAPGTEEDTPLKPSAQTTVVTSQSSVDSTISSSSSTKGIKRKATEISTAVVQRSATIGSSPVLYSQSAIATGHQAAGIGNQATGIGHQTIPVSLPAAGMGHQARGMSLQSNYLGLAAAPAIMSYAECSVPIGVTAPSLQPVQARGAVPTATIIEPPPPPPPPPPPPPPAPKMPPPEKTKKGRKDKAKKSKTKMPSLVKKWQSIQRELDEEDNSSSSEEDRESTAQKRIEEWKQQQLVSGMAERNANFEALPEDWRARLKRRKMAPNT [FNBP4]”, the “solubility in G1/S (log2)” value in series [1] is -0.323. Further, the melting temperature was determined as 62.5 °C in series [2] (cell cycle stage: G1/S) and 62.1 °C in series [2] (cell cycle stage: mitosis). In addition, the “solubility change mitosis (log2)” value in series [3] amounted to 0.168. The figures for the thermal stability score in series [4] (setting [5]) and in series [4] (cell cycle stage: mitosis) were -4.32 and -4.84, respectively.
Take “MGKRDRADRDKKKSRKRHYEDEEDDEEDAPGNDPQEAVPSAAGKQVDESGTKVDEYGAKDYRLQMPLKDDHTSRPLWVAPDGHIFLEAFSPVYKYAQDFLVAIAEPVCRPTHVHEYKLTAYSLYAAVSVGLQTSDITEYLRKLSKTGVPDGIMQFIKLCTVSYGKVKLVLKHNRYFVESCHPDVIQHLLQDPVIRECRLRNSEGEATELITETFTSKSAISKTAESSGGPSTSRVTDPQGKSDIPMDLFDFYEQMDKDEEEEEETQTVSFEVKQEMIEELQKRCIHLEYPLLAEYDFRNDSVNPDINIDLKPTAVLRPYQEKSLRKMFGNGRARSGVIVLPCGAGKSLVGVTAACTVRKRCLVLGNSAVSVEQWKAQFKMWSTIDDSQICRFTSDAKDKPIGCSVAISTYSMLGHTTKRSWEAERVMEWLKTQEWGLMILDEVHTIPAKMFRRVLTIVQAHCKLGLTATLVREDDKIVDLNFLIGPKLYEANWMELQNNGYIAKVQCAEVWCPMSPEFYREYVAIKTKKRILLYTMNPNKFRACQFLIKFHERRNDKIIVFADNVFALKEYAIRLNKPYIYGPTSQGERMQILQNFKHNPKINTIFISKVGDTSFDLPEANVLIQISSHGGSRRQEAQRLGRVLRAKKGMVAEEYNAFFYSLVSQDTQEMAYSTKRQRFLVDQGYSFKVITKLAGMEEEDLAFSTKEEQQQLLQKVLAATDLDAEEEVVAGEFGSRSSQASRRFGTMSSMSGADDTVYMEYHSSRSKAPSKHVHPLFKRFRK [ERCC3]”: the “solubility in G1/S (log2)” value in series [1] is -0.561. The melting temperature came to 47.9 °C in series [2] (cell cycle stage: G1/S) and 49.6 °C in series [2] (cell cycle stage: mitosis). Further, the “solubility change mitosis (log2)” value in series [3] is -0.0174. Also, the thermal stability score in series [4] (setting [5]) was 0.89; in series [4] (cell cycle stage: mitosis), 1.14.
Regarding “MGLAGVCALRRSAGYILVGGAGGQSAAAAARRYSEGEWASGGVRSFSRAAAAMAPIKVGDAIPAVEVFEGEPGNKVNLAELFKGKKGVLFGVPGAFTPGCSKTHLPGFVEQAEALKAKGVQVVACLSVNDAFVTGEWGRAHKAEGKVRLLADPTGAFGKETDLLLDDSLVSIFGNRRLKRFSMVVQDGIVKALNVEPDGTGLTCSLAPNIISQL [PRDX5]”, in series [1], the “solubility in G1/S (log2)” value is 0.582. Further, the melting temperature in series [2] (cell cycle stage: G1/S) and in series [2] (cell cycle stage: mitosis) was 55.9 °C in each case. In series [3], the “solubility change mitosis (log2)” value is 0.124. Also, the results for the thermal stability score in series [4] (setting [5]) and in series [4] (cell cycle stage: mitosis) were -1.13 and -2.67, respectively.
As to “MGLETEKADVQLFMDDDSYSHHSGLEYADPEKFADSDQDRDPHRLNSHLKLGFEDVIAEPVTTHSFDKVWICSHALFEISKYVMYKFLTVFLAIPLAFIAGILFATLSCLHIWILMPFVKTCLMVLPSVQTIWKSVTDVIIAPLCTSVGRCFSSVSLQLSQD [CAV2]”, the “solubility in G1/S (log2)” value in series [1] was -0.178. The melting temperature in series [2] (cell cycle stage: G1/S) stood at 56.1 °C; in series [2] (cell cycle stage: mitosis), 56.9 °C. In series [3], the “solubility change mitosis (log2)” value was -0.0267. The values for the thermal stability score in series [4] (setting [5]) and in series [4] (cell cycle stage: mitosis) were -1.45 and -2.03, respectively.
Take “MGLPEPGPLRLLALLLLLLLLLLLQLQHLAAAAADPLLGGQGPAKDCEKDQFQCRNERCIPSVWRCDEDDDCLDHSDEDDCPKKTCADSDFTCDNGHCIHERWKCDGEEECPDGSDESEATCTKQVCPAEKLSCGPTSHKCVPASWRCDGEKDCEGGADEAGCATLCAPHEFQCGNRSCLAAVFVCDGDDDCGDGSDERGCADPACGPREFRCGGDGGGACIPERWVCDRQFDCEDRSDEAAELCGRPGPGATSAPAACATASQFACRSGECVHLGWRCDGDRDCKDKSDEADCPLGTCRGDEFQCGDGTCVLAIKHCNQEQDCPDGSDEAGCLQGLNECLHNNGGCSHICTDLKIGFECTCPAGFQLLDQKTCGDIDECKDPDACSQICVNYKGYFKCECYPGYEMDLLTKNCKAAAGKSPSLIFTNRHEVRRIDLVKRNYSRLIPMLKNVVALDVEVATNRIYWCDLSYRKIYSAYMDKASDPKEQEVLIDEQLHSPEGLAVDWVHKHIYWTDSGNKTISVATVDGGRRRTLFSRNLSEPRAIAVDPLRGFMYWSDWGDQAKIEKSGLNGVDRQTLVSDNIEWPNGITLDLLSQRLYWVDSKLHQLSSIDFSGGNRKTLISSTDFLSHPFGIAVFEDKVFWTDLENEAIFSANRLNGLEISILAENLNNPHDIVIFHELKQPRAPDACELSVQPNGGCEYLCLPAPQISSHSPKYTCACPDTMWLGPDMKRCYRAPQSTSTTTLASTMTRTVPATTRAPGTTVHRSTYQNHSTETPSLTAAVPSSVSVPRAPSISPSTLSPATSNHSQHYANEDSKMGSTVTAAVIGIIVPIVVIALLCMSGYLIWRNWKRKNTKSMNFDNPVYRKTTEEEDEDELHIGRTAQIGHVYPAAISSFDRPLWAEPCLGETREPEDPAPALKELFVLPGEPRSQLHQLPKNPLSELPVVKSKRVALSLEDDGLP [LRP8]”: the “solubility in G1/S (log2)” value in series [1] turned out to be 0.0581. Moreover, the melting temperature in series [2] (cell cycle stage: G1/S) came out at 55.6 °C; in series [2] (cell cycle stage: mitosis), 56.7 °C. Further, in series [3], the “solubility change mitosis (log2)” value was -0.0602. For the same sequence, the thermal stability score in series [4] (setting [5]) was -3.43; in series [4] (cell cycle stage: mitosis), -3.53.
